This note sets out measurements from publication PMC3505971 (Nucleic Acids Research, 2012).

The labels stand for the following.
B1: Staphylococcus aureus Hfq (natural protein)
chain: MIANENIQDKALENFKANQTEVTVFFLNGFQMKGVIEEYDKYVVSLNSQGKQHLIYKHAISTYTVETEGQASTESEE

One data set has as its target T1, Sa Hfq (Staphylococcus aureus, UniProt A0A0H3JV59 1-77). Description: fluorescence polarization. (Polarisation of emitted light reports the rotation of a fluorescent probe.)
Broadly, the Kd is a measure of binding affinity in units of concentration. Read a low Kd as higher affinity. On to AUAUAUA (ssRNA) [(AU)3A], for which the Kd is 2.7 ± 2.3 nM.
Same read-out and setting: as for UUUUUU (ssRNA) [U6], the figure is 69.8 ± 7 nM.
GGAGGAGGAGGAGGAGGAGGAGGAGGA (ssRNA) [(GGA)9] returned a Kd of 350 nM.
As to GGAGGA (ssRNA) [(GGA)2], the Kd worked out at 450 nM.
The same measure, in the same setting: the figure for AGAGAGA (ssRNA) [(AG)3A] is 3.5 ± 0.3 nM.
The same measure, in the same setting: the figure for ACACACA (ssRNA) [(AC)3A] is 5.8 ± 7.3 nM.
On the same count and under the same terms, the figure for AAAAAAAAAAAAAAAAAAAAAAAAAAA (ssRNA) [A27] is 109 ± 13 nM; for AAAAAAAAAAAAAAAA (ssRNA) [A16] it is 4.2 ± 0.5 nM; for AAAAAAA (ssRNA) [(AA)3A = A7] it is 19.5 ± 6.4 nM.

Another data set concerns the target Ec Hfq (Escherichia coli, UniProt P0A6X3 1-102). Description: fluorescence polarization.
Turning to AAAAAAAAAAAAAAAAAAAAAAAAAAA (ssRNA) [A27], binding was characterised by a dissociation constant (Kd) of 0.85 ± 0.08 nM.
Still for that read-out and setting: as for AAAAAAAAAAAAAAAA (ssRNA) [A16], the figure is 0.4 ± 0.5 nM.

For another data set, the target named is Sa Hfq(K33A) (Staphylococcus aureus, UniProt A0A0H3JV59 1-77, K33A). The data set can be described thus: fluorescence polarization.
AUAUAUA (ssRNA) [(AU)3A] showed an equilibrium dissociation constant (Kd) of 309 ± 40.2 nM.
Turning to UUUUUU (ssRNA) [U6], the Kd is 72.7 ± 21.9 nM.
As for AGAGAGA (ssRNA) [(AG)3A], the Kd is 11.9 ± 3 nM.
Turning to AAAAAAA (ssRNA) [(AA)3A = A7], the Kd turned out to be 406 ± 112 nM.

Another data set deals with the molecule itself. Description: crystal structure.
What is called stoichiometry N is the number of molecules, sites or subunits per partner or assembly. In the case of B1, the “stoichiometry N” value is 6.

A further data set addresses T1, Sa Hfq. The data set can be described thus: fluorescence polarization. This is another data set of the same source.
Consider AAAAAAG (ssRNA) [A6G], for which the binding result is on record as “binds”.
Same read-out and setting: as for AUUUUUG (ssRNA) [AU5G], the entry is “binds”.
